Source: paper PMC6204840

Columns and labels:
[1] = molecular target: Fcγ receptor IIIa (V176 or F176, not told which) (UniProt P08637); assay: ELISA
[2] = molecular target: Fcγ receptor IIIa (V176 or F176, not told which) (UniProt P08637)
[3] = molecular target: soluble human neonatal Fc receptor (FcRn alpha chain extracellular domain + beta2-microglobulin) (UniProt P55899+P61769); assay: SPR; details: pH 6.0, PBS (concentration not stated), adjusted to pH 6.0 or pH 7.4
[4] = molecular target: motavizumab IgG1 with Fc variant DF183 (human); assay: SPR
[5] = molecular target: motavizumab IgG1 with Fc variant DF215 (human); assay: SPR
[6] = molecular target: motavizumab IgG1 with wild type Fc (human); assay: SPR
[7] = molecular target: motavizumab IgG1 with Fc variant DF197 (human); assay: SPR
[8] = molecular target: motavizumab IgG1 with Fc variant DF213 (human); assay: SPR
[9] = molecular target: recombinant cynomolgus monkey FcRn (cynomolgus monkey) (UniProt Q8SPV9); assay: BLI
Chain of UniProt Q8SPV9 (Q8SPV9 24-297, chain 1 of 2): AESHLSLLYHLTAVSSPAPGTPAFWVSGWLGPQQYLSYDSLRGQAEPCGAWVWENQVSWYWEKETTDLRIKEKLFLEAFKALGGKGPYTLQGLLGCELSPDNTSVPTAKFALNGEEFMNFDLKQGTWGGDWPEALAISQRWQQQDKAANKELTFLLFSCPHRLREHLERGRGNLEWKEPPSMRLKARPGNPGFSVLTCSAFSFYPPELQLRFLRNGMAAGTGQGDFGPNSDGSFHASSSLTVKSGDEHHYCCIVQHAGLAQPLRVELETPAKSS
Chain of UniProt Q8SPV9 (Q8SPW0 21-119, chain 2 of 2, further chain): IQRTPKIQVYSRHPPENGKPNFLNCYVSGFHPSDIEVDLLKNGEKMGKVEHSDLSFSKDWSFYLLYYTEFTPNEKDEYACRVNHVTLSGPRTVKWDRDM

Chain of UniProt P08637 (P08637 17-208): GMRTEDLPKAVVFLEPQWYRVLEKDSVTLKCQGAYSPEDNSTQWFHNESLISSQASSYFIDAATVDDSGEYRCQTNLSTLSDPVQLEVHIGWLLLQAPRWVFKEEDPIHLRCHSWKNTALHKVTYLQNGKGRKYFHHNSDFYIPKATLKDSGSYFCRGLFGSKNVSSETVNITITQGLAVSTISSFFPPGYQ

Row | EC50 [1] | ADCC EC50 (ADCC Reporter Bioassay, rituximab Fab, WIL2-S cells) [2] | ka [3] | kd [3] | Substance | further results
1 | 142 nM | 2.73 ng/mL | – | – | rituximab IgG1 with Fc variant DF215 (antibody) | –
2 | 1010 nM | 15 ng/mL | – | – | rituximab IgG1 with Fc variant YTE (antibody) | –
3 | 192 nM | – | – | – | rituximab IgG1 with Fc variant LS (antibody) | –
4 | – | – | 1.39e+06 M⁻¹ s⁻¹ | 0.0142 s⁻¹ | motavizumab IgG1 DF228 T256D;H286D (as printed; probably N286D);T307R;Q311V;A378V | –

The next lines start with the substance.

Row | Substance | EC50 [1] | ADCC EC50 (ADCC Reporter Bioassay, rituximab Fab, WIL2-S cells) [2] | ka [3] | kd [3] | further results
5 | rituximab IgG1 with Fc variant DF213 (antibody) | 139 nM | 4.01 ng/mL | – | – | –
6 | motavizumab IgG1 DF183 T256D;Q311V;A378V | – | – | 1.93e+06 M⁻¹ s⁻¹ | 0.0402 s⁻¹ | –
7 | motavizumab IgG1 DF213 H285D;T307Q;A378V | – | – | 800000 M⁻¹ s⁻¹ | 0.0192 s⁻¹ | –
8 | recombinant human FcRn heterodimer (α-FcRn extracellular domain with β2M) (from UniProt P55899 24-297; P61769 21-119) (complex) | – | – | – | – | Kd [4]: 21 nM; Kd [5]: 19 nM; Kd [6]: 825 nM; Kd [7]: 21 nM; Kd [8]: 24 nM
9 | rituximab IgG1 with Fc variant DF197 (antibody) | 97.4 nM | 8.3 ng/mL | – | – | –
10 | rituximab IgG1 with Fc variant DF228 (antibody) | 154 nM | 2.66 ng/mL | – | – | –
11 | rituximab IgG1 with Fc variant DF183 (antibody) | 87.2 nM | 3.92 ng/mL | – | – | –
12 | rituximab IgG1 with wild type Fc (antibody) | 538 nM | – | – | – | –
13 | motavizumab IgG1 DF215 T307Q;Q311V;A378V | – | – | 1.37e+06 M⁻¹ s⁻¹ | 0.027 s⁻¹ | –
14 | motavizumab with wild type human IgG1 Fc (antibody) | – | – | – | – | Kd [9]: 13.7 nM
15 | motavizumab IgG1 DF197 H285N;T307Q;N315D | – | – | 1.59e+06 M⁻¹ s⁻¹ | 0.0328 s⁻¹ | –
